# In the supplement of paper PMC10065799, “High-throughput profiling of sequence recognition by tyrosine kinases and SH2 domains using bacterial peptide display” (eLife, 2023):
# What was measured:
# [1] = target: SHP2-C SH2; assay: SH2 binding enrichment of the phosphorylated peptide, bacterial display (enrichment ratio); higher = better substrate or ligand; peptides without Tyr show the background
# [2] = target: c-Src SH2; assay: as above
# [3] = target: Grb2 SH2 (UniProt P62993); assay: as above
# [4] = target: MERTK (UniProt Q12866); assay: phosphorylation enrichment, bacterial display (enrichment ratio); higher = better substrate or ligand; peptides without Tyr show the background
# [5] = tested on: AncSZ; assay: as above
# [6] = target: Fyn (UniProt P06241); assay: as above
# [7] = tested on: c-Abl (mouse); assay: as above
# [8] = target: EPHB1 (UniProt P54762); assay: as above
# Chain of EPHB1 (P54762 whole entry, looked up): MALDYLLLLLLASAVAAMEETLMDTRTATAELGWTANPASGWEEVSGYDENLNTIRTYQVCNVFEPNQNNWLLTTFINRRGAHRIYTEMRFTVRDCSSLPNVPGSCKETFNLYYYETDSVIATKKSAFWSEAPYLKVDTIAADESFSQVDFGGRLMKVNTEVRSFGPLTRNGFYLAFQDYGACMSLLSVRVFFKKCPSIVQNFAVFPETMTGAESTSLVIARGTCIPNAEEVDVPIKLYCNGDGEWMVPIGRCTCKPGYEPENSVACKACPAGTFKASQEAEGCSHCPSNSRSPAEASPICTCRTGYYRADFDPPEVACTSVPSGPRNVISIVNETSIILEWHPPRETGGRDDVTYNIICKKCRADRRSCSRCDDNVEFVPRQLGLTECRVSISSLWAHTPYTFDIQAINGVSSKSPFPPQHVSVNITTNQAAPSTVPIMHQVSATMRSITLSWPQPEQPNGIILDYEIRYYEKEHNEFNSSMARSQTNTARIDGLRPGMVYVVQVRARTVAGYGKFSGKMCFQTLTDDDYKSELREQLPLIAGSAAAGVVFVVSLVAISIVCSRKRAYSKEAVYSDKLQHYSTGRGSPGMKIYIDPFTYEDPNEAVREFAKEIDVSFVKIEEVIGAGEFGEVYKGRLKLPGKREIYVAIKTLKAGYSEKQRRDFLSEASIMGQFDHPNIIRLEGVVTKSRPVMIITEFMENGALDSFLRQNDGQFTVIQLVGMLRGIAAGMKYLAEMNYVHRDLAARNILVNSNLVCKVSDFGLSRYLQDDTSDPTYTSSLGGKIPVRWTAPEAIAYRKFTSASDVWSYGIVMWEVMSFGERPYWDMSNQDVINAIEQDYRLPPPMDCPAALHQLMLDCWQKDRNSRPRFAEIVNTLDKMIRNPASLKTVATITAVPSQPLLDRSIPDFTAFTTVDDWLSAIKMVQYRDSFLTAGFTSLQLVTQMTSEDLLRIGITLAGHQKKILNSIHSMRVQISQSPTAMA
# [9] = target: EPHB2 (UniProt P29323); assay: as above
# [10] = tested on: Fer (mouse); assay: as above
# [11] = target: FGFR1 (UniProt P11362); assay: as above
# Chain of FGFR1 (P11362 whole entry, looked up): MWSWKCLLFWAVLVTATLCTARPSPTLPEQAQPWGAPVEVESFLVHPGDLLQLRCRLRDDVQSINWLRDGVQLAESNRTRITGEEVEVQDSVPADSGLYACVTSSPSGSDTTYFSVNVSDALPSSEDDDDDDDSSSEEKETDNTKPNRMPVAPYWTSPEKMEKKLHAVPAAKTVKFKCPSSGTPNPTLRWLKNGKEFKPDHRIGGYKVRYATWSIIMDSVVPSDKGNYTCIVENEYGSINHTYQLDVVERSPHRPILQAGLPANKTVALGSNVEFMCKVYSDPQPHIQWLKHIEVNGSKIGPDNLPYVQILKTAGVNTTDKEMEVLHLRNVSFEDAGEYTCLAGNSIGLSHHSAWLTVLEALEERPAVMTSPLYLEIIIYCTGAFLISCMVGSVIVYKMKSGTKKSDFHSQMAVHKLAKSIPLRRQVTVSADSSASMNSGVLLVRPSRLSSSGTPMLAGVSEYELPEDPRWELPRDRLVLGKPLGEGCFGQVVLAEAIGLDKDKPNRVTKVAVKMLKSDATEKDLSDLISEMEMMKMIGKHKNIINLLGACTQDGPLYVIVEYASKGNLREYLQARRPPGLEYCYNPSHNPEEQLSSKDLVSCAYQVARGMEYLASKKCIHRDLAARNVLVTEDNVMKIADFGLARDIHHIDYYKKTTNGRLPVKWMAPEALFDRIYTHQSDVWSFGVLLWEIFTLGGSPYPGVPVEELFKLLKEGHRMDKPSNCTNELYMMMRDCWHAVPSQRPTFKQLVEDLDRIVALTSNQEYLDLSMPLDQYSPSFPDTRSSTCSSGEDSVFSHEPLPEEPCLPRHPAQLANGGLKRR
# [12] = tested on: c-Src; assay: as above
# [13] = target: FGFR3 (UniProt P22607); assay: as above
# Chain of FGFR3 (P22607 whole entry, looked up): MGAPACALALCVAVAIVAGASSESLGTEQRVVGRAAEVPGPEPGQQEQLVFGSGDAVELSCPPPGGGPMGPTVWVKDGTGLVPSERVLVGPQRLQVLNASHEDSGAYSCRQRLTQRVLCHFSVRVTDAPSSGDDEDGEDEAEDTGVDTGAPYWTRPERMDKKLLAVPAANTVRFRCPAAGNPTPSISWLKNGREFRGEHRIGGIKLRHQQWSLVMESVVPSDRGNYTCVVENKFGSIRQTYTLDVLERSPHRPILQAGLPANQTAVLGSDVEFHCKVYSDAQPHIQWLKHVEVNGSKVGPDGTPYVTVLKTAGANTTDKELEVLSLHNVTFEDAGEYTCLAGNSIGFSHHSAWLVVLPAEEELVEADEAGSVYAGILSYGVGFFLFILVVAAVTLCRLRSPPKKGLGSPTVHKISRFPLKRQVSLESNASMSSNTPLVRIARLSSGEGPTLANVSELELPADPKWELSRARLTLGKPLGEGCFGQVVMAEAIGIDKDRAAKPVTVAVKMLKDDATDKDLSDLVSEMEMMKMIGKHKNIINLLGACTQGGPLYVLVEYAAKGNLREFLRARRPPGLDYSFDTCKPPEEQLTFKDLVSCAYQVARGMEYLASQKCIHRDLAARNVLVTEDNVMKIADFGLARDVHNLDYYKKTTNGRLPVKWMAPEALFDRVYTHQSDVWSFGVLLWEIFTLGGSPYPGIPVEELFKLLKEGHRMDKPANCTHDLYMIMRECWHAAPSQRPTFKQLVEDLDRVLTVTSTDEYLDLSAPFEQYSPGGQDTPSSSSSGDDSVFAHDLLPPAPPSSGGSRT
# [14] = target: Fes (UniProt P07332); assay: as above
# Chain of Fes (P07332 whole entry, looked up): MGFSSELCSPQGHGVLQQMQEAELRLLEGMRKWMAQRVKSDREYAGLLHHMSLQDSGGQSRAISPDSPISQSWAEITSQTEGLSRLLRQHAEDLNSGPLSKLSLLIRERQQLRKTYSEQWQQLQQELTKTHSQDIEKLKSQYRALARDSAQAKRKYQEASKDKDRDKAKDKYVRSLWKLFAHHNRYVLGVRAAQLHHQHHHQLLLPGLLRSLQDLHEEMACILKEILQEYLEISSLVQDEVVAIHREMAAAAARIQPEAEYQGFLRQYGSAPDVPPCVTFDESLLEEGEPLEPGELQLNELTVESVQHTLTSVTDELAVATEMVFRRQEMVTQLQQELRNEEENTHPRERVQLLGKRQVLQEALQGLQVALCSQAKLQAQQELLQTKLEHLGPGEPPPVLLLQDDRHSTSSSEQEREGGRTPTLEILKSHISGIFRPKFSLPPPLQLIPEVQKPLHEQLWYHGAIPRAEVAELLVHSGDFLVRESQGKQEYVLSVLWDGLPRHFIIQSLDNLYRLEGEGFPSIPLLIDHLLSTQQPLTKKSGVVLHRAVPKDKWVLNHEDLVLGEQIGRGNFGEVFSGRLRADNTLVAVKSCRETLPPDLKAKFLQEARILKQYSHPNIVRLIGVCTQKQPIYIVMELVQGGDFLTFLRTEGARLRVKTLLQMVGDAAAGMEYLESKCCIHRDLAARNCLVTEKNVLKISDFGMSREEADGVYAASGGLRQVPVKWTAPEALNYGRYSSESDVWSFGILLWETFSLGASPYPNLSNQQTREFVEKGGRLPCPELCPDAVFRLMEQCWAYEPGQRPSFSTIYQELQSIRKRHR
# [15] = target: Hck (UniProt P08631); assay: as above
# Chain of Hck (P08631 whole entry, looked up): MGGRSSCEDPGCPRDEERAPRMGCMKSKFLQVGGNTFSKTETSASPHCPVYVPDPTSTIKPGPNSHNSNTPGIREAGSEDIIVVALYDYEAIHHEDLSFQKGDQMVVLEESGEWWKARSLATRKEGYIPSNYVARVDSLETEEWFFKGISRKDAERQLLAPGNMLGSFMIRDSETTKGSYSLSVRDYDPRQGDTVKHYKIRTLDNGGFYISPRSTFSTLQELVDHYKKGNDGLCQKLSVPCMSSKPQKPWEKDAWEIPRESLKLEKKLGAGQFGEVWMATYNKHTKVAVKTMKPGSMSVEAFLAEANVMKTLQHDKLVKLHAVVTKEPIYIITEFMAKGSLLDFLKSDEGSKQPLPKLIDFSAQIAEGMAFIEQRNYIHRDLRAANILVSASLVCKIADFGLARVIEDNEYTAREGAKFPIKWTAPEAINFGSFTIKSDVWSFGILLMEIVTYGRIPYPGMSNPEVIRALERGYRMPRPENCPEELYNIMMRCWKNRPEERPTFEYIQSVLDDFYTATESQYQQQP
# [16] = target: Jak2 (UniProt O60674); assay: as above
# Chain of Jak2 (O60674 whole entry, looked up, the tested form may be a part): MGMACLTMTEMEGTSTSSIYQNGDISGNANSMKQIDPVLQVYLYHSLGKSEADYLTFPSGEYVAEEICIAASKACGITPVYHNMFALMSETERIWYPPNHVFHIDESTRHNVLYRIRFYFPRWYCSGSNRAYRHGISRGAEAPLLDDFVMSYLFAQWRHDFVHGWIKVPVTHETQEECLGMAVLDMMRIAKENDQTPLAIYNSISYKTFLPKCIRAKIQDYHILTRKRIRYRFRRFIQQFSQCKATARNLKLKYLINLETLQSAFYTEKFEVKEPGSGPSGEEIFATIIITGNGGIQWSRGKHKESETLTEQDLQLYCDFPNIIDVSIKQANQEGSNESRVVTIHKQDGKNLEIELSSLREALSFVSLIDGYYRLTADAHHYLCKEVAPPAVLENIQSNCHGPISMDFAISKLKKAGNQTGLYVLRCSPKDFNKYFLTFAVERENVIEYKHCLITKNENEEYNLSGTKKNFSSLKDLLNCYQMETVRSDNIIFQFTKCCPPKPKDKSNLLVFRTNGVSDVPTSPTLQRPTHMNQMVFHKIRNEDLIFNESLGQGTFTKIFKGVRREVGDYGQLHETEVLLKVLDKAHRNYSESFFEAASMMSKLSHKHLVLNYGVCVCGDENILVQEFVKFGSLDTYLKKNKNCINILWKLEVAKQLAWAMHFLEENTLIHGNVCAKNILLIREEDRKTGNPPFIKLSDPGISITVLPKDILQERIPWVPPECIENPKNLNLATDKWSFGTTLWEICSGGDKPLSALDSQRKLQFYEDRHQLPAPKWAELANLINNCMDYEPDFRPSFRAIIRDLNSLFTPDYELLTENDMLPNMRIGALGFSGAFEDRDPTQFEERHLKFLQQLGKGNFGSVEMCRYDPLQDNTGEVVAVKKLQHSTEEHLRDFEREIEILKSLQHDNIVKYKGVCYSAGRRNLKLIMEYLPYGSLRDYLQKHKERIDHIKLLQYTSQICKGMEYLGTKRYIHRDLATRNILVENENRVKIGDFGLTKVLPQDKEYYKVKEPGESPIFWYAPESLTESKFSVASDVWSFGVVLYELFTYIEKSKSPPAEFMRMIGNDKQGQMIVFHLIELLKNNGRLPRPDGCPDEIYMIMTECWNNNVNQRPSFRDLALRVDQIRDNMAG
# 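Throughout, for SH2 binding enrichment of the phosphorylated peptide, bacterial display: peptide library displayed on the E. coli surface as eCPX fusions, selected cells deep-sequenced, score is each peptide's frequency after selection divided by its frequency in the input.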
# 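Throughout, for phosphorylation enrichment, bacterial display: 11-residue human phosphosite peptides and single-mutation variants displayed on the E. coli surface, counted by deep sequencing, each peptide's frequency after selection divided by its frequency in the unselected input library; frequency after pTyr selection over input frequency; kinase dosed for 20-30% of maximal phosphorylation in three min.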
SH2 binding enrichment [1],SH2 binding enrichment [2],SH2 binding enrichment [3],Sequence,phosphorylation enrichment [4],phosphorylation enrichment [5],phosphorylation enrichment [6],phosphorylation enrichment [7],phosphorylation enrichment [8],phosphorylation enrichment [9],phosphorylation enrichment [10],phosphorylation enrichment [11],phosphorylation enrichment [12],phosphorylation enrichment [13],phosphorylation enrichment [14],phosphorylation enrichment [15],phosphorylation enrichment [16]
5.07,1.71,0.623,LNAGAYSKVVQ [PPT1_Y172],0.627,1.12,0.529,0.994,0.703,0.557,1.02,0.41,0.84,0.686,0.974,0.357,1.28
0.649,0.89,0.662,VTVLDYEKIGK [SYT1_Y365_D366E],0.393,0.783,0.479,0.54,1.07,0.524,0.412,0.456,0.355,0.561,0.868,0.573,0.77
0.693,5.15,0.772,HIKHNYECLVY [XRCC5_Y416],0.548,1.05,0.868,0.882,2.87,2.44,0.514,0.924,1.78,0.839,1.05,0.638,0.935
1.53,1.11,1.96,RIILLYIFLKN [STXBP1_Y411],0.581,0.83,0.212,0.827,0.298,0.332,0.45,0.466,0.62,0.489,1.01,0.42,0.994
1.03,1.05,1.44,LRSELYFLIAR [PHIP_Y16],7.59,2.02,0.769,1.63,1.54,1.4,0.916,3.06,1.5,3.17,1.71,1.93,3.62
0.456,1.28,0.516,TVLEPYTDPYY [ZC3H18_Y367_A368T],0.524,1.2,0.656,0.568,0.611,0.541,0.433,1,0.845,0.797,0.857,0.649,0.805
0.512,0.64,0.806,SVVVPYEPPKV [TP53_Y220_E224K],0.366,0.827,0.387,0.895,0.474,0.59,0.45,0.41,0.465,0.612,0.837,0.465,0.822

# More lines, now with the values behind:
Sequence,SH2 binding enrichment [1],SH2 binding enrichment [2],SH2 binding enrichment [3],phosphorylation enrichment [4],phosphorylation enrichment [5],phosphorylation enrichment [6],phosphorylation enrichment [7],phosphorylation enrichment [8],phosphorylation enrichment [9],phosphorylation enrichment [10],phosphorylation enrichment [11],phosphorylation enrichment [12],phosphorylation enrichment [13],phosphorylation enrichment [14],phosphorylation enrichment [15],phosphorylation enrichment [16]
YLENYYDLKKD [MMP3_Y42],0.821,0.908,0.904,1.81,1.83,3.76,0.957,6.01,3.03,0.759,9.43,2.31,7.09,1.27,3.17,1.61
YQKDVYNIPPS [NEDD9_Y177_D178N],0.6,0.495,0.808,1.64,0.81,4.4,0.584,0.456,0.532,0.472,0.623,3.29,0.529,0.702,2.34,0.805
EFKKKYSDADI [CKAP5_Y1860_YF],0.616,0.487,0.883,0.472,0.576,0.459,0.464,0.303,0.565,0.331,0.413,0.334,0.476,0.683,0.408,0.606
IAINKYGVSLI [MYO7A_Y2136],0.703,0.657,0.946,0.426,0.837,0.432,0.744,0.608,0.613,0.527,0.619,0.441,0.594,1.12,0.497,1.01
MTFQNYRQALF [FAM20C_Y279_G280R],0.792,0.51,1.13,0.494,0.909,0.576,0.657,0.477,0.572,0.451,0.444,0.462,0.57,1.02,0.469,0.867
AVRFIYTIDGS [DCX_Y105_G100A_YF],0.988,0.723,0.928,0.424,1.32,1.56,0.706,0.574,0.552,0.529,0.453,1.55,0.697,1.28,0.67,1.27
PELINYQQHNS [BTK_Y361_H362Q],0.732,0.491,0.753,0.988,1.1,0.829,1.22,0.79,0.821,0.742,0.763,0.969,0.79,1.38,1.25,1.52
VHLFAYDWISI [BEST1_Y227_G222V_YF],1.36,0.972,1.3,4.12,1.27,0.589,0.69,1.06,0.868,10.4,1.41,0.651,1.17,1.38,0.804,1.04
HIPFRYPKEFQ [IDS_Y234],1.12,0.862,1.1,0.645,0.826,0.424,0.946,0.521,0.641,0.344,0.442,0.756,0.66,1.26,0.564,0.815
ILGRFYETSSI [PAX2_Y73_G76S_YF],0.792,1.02,0.85,0.472,0.66,0.399,0.606,0.516,0.47,0.887,0.417,0.47,0.463,0.813,0.531,0.665
